{"source": "patent US20230121197A1", "about": "“ANTIBODIES SPECIFICALLY BINDING THE CARBOXYMETHYLATED CATALYTIC SUBUNIT OF PROTEIN PHOSPHATASE 2A” (Medizinische Universität Wien, priority 2020, published 2023)", "key": {"[1]": {"target": "T1, mouse HA PP6c, carboxymethylated (immunoprecipitated from NIH3T3 cells) (mouse, UniProt Q9CQR6 1-305, C-terminal leucine α-carboxyl methyl ester (cellular methylation))", "T1 construct": "mature; also called methylated PP6c; not shown: HA tag", "T1 sequence (looked up)": "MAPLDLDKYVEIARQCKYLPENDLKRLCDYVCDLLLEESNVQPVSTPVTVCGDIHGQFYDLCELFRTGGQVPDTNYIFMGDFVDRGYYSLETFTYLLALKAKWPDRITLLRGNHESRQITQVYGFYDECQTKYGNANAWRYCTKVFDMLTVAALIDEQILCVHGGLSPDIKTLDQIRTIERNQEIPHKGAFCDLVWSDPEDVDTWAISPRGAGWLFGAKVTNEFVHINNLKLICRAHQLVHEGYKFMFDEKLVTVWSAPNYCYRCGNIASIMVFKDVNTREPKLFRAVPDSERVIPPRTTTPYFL", "assay": "Western blot of anti-HA immunoprecipitates from NIH3T3 cells, with quantification, N=3", "excerpt": "(A) Alignment of the C-termini of mammalian catalytic PP2Ac, PP4c and PP6c subunits (B) Immunoblotting of anti HA-immunoprecipitates of NIH3T3 cells either infected with retroviral supernatants of pBabe hygro (control) or pBabe hygro HA-PP2Ac (label “HA-PP2A), pBabe hygro HA-PP4c (label “HA-PP4”) or pBabe hygro HA-PP6c (label HA-PP6) using indicated antibodies. The label “7C10” refers to the 7C10-C5 monoclonal antibody. To equilibrate HA levels, 2 times more of the HA-PP4c and 3 times more of the HA-PP6c immunoprecipitates was loaded than HA-PP2Ac. The panel originates from 3 different blotting membranes for each antibody indicated in the panel. The blots are representative of N=3 independent immunoprecipitation experiments. The 2A10 and 7C10-C5 signals were quantified from N=3 independent experiments, normalized to the HA levels and the HA-PP2Ac signals were set to 1. Average and standard deviation (error bars) are shown. Statistical significance was assessed using ANOVA followed by Tukey's HSD as a post-hoc test. […]"}, "[2]": {"target": "T2, PP2Ac C-terminal peptide meL309, ac-HVTRRTPDYFL-CH3 (α-carboxymethylated) (human, SMILES …)", "T2 construct": "also called Y307-meL309; mePP2Ac", "T2 peptide": "Ac-HVTRRTPDYFL-OMe", "assay": "SPR (Biacore T200), antibody captured by anti-mouse IgG on CM5 chip, peptide 5-160 nM as analyte, steady state analysis, 25 °C", "description": "The differential affinity of anti-carboxymethylated PP2Ac antibodies, 7C10-C5 and 2A10, to carboxymethylated PP2A catalytic subunit versus noncarboxymethylated PP2A catalytic subunit was determined by surface plasmon resonance (SPR) on a Biacore T200 (GE Healthcare) at the Core Facility Biomolecular & Cellular Analysis (University of Natural Resources and Life Sciences Vienna BOKU). The affinity of 7C10-C5 for carboxymethylated and noncarboxymethylated catalytic subunit of PP4 (PP4c), a PP2A-related phosphatase, was also determined.\nSeries S Sensor Chip CM5 (GE Healthcare, 10296958) Flow cells (e.g. Flow cells 3 and 4 for the data shown in Table 5 and FIG. 32) were coated with 30 μg/mL anti-mouse IgG antibody (in immobilization buffer) using the mouse antibody capture kit (GE Healthcare, BR-1008-38, Lot 10294578) via amine coupling according to the manufacturer's protocol (i.e. https://www.cytivalifesciences. com/en/us/shop/protein-analysis/spr-lab el-free-analysis/capture-reagents/mouse-antibody-capture-kit-p-05986). The immobilisation levels obtained were 11620.2 RU (Flow cell 1), 10836.5 RU (Flow cell 2), 11605.9 RU (Flow cell 3) and 11333.9 RU (Flow cell 4), and thus were within the specifications. […]\nSPR experiments were performed with the BiacoreT200 instrument (Cytiva). […] The sensorgrams obtained were analyzed with BiacoreT200 Evaluation Software (version 3.1)."}}}
{"binder": "7C10-C5 monoclonal antibody (antibody, V domains shown, Used as hybridoma culture supernatant (ELISA, Western blot, IHC) or at 50 µg/mL (SPR); also called 7C10 X63; clone 7C10-C5) VH: DVQLQESGPGLVKPSQSLSLTCSVTGYSITSGYYWNWIRQFPGNKLEWMGYISYDGSNNYNPSLKNRISITRDTSKNQFFLKLNSVTTEDTATYYCAGRFAYWGQGTLVTVSA VL: DVLMTQTPLSLPVSLGDQASISCRSSQSIVHSNGNTYLEWYLQKPGQSPKLLIYKVSNRFSGVPDRFSGSGSGTDFTLKINRVEAEDLGVYYCFQGSHVPWTFGGGTKLEIK", "values": [{"measurement": "binding result", "setting": "[1]", "value": "no binding"}, {"measurement": "Kd", "setting": "[2]", "value": 11, "unit": "nM"}]}
